Experimental data reported in patent publication US20230140293A1.

Experiments:
Experiment in all cases: cell-based or functional assay
[1] = molecular target: CH0505TF.gly3.276 Env, Env-pseudotyped virus produced in 293S GnTI- cells (Man5-enriched) (HIV-1)
[2] = molecular target: HIV-1 426c.DM (N460D/N463D) Env on Env-pseudotyped virus produced in 293T cells (HIV-1)
[3] = molecular target: HIV-1 Env 426c.SM (N276D), Env-pseudotyped virus produced in 293T cells (HIV-1 clade C strain 426c)
[4] = molecular target: HIV-1 Env 426c.DM (N460D.N463D), Env-pseudotyped virus produced in 293T cells (HIV-1 clade C strain 426c)
[5] = molecular target: HIV-1 426c.SM (N276D) Env on Env-pseudotyped virus produced in 293T cells (HIV-1)
[6] = molecular target: HIV-1 Env 426c.TM4 (S278R.G471S.N460D.N463D), Env-pseudotyped virus produced in 293T cells (HIV-1 clade C strain 426c)
[7] = molecular target: CH0505TF.G458Y Env, Env-pseudotyped virus produced in 293S GnTI- cells (Man5-enriched) (HIV-1)
[8] = molecular target: HIV-1 Env 426c, Env-pseudotyped virus produced in 293T cells (HIV-1 clade C strain 426c)
[9] = molecular target: HIV-1 Env 426c.SM (N276D), Env-pseudotyped virus produced in 293S GnTI- cells (Man5-enriched) (HIV-1 clade C strain 426c)
[10] = molecular target: HIV-1 Env 426c.TM4 (S278R.G471S.N460D.N463D), Env-pseudotyped virus produced in 293S GnTI- cells (Man5-enriched) (HIV-1 clade C strain 426c)
[11] = molecular target: HIV-1 clade C strain 426c Env on Env-pseudotyped virus produced in 293s/GnTI-/- cells (Man5-enrichment) (HIV-1)
[12] = molecular target: HIV-1 Env 426c.TM (N276D.N460D.N463D), Env-pseudotyped virus produced in 293T cells (HIV-1 clade C strain 426c)
[13] = molecular target: HIV-1 426c.DM (N460D/N463D) Env on Env-pseudotyped virus produced in 293s/GnTI-/- cells (Man5-enrichment) (HIV-1)
[14] = molecular target: CH0505TF Env, Env-pseudotyped virus produced in 293S GnTI- cells (Man5-enriched) (HIV-1)
[15] = molecular target: HIV-1 Env 426c.TM (N276D.N460D.N463D), Env-pseudotyped virus produced in 293S GnTI- cells (Man5-enriched) (HIV-1 clade C strain 426c)
[16] = molecular target: CH0505TF.gly4 Env, Env-pseudotyped virus produced in 293S GnTI- cells (Man5-enriched) (HIV-1)
[17] = molecular target: CH0505TF.gly4 Env, Env-pseudotyped virus produced in 293T cells (HIV-1)
[18] = molecular target: CH0505TF.gly3.461 Env, Env-pseudotyped virus produced in 293T cells (HIV-1)
[19] = molecular target: CH0505TF.gly3.197 Env, Env-pseudotyped virus produced in 293S GnTI- cells (Man5-enriched) (HIV-1)
[20] = molecular target: CH0505TF.gly3.276 Env, Env-pseudotyped virus produced in 293T cells (HIV-1)
[21] = molecular target: CH0505TF.gly3.461 Env, Env-pseudotyped virus produced in 293S GnTI- cells (Man5-enriched) (HIV-1)
[22] = molecular target: HIV-1 426c.SM (N276D) Env on Env-pseudotyped virus produced in 293s/GnTI-/- cells (Man5-enrichment) (HIV-1)
[23] = molecular target: HIV-1 426c.TM (N276D/N460D/N463D) Env on Env-pseudotyped virus produced in 293T cells (HIV-1)
[24] = molecular target: HIV-1 Env 426c.DM (N460D.N463D), Env-pseudotyped virus produced in 293S GnTI- cells (Man5-enriched) (HIV-1 clade C strain 426c)
[25] = molecular target: CH0505TF Env, Env-pseudotyped virus produced in 293T cells (HIV-1)
[26] = molecular target: HIV-1 clade C strain 426c Env on Env-pseudotyped virus produced in 293T cells (HIV-1)
[27] = molecular target: HIV-1 Env 426c, Env-pseudotyped virus produced in 293S GnTI- cells (Man5-enriched) (HIV-1 clade C strain 426c)
[28] = molecular target: CH0505.w4.3 Env, Env-pseudotyped virus produced in 293T cells (HIV-1)
[29] = molecular target: CH0505TF.gly3.197 Env, Env-pseudotyped virus produced in 293T cells (HIV-1)
[30] = molecular target: HIV-1 426c.TM (N276D/N460D/N463D) Env on Env-pseudotyped virus produced in 293s/GnTI-/- cells (Man5-enrichment) (HIV-1)
[31] = molecular target: CH0505TF.G458Y Env, Env-pseudotyped virus produced in 293T cells (HIV-1)

Substance	IC50 (µg/ml) in TZM-bl [1] [µg/mL]	ID50/IC50 in TZM-bl [2] [µg/mL]	IC50 (µg/ml) in TZM-bl [3] [µg/mL]	IC50 (µg/ml) in TZM-bl [4] [µg/mL]	ID50/IC50 in TZM-bl [5] [µg/mL]	IC50 (µg/ml) in TZM-bl [6] [µg/mL]	IC50 (µg/ml) in TZM-bl [7] [µg/mL]	IC50 (µg/ml) in TZM-bl [8] [µg/mL]	IC50 (µg/ml) in TZM-bl [9] [µg/mL]	IC50 (µg/ml) in TZM-bl [10] [µg/mL]	ID50/IC50 in TZM-bl [11] [µg/mL]	IC50 (µg/ml) in TZM-bl [12] [µg/mL]	ID50/IC50 in TZM-bl [13] [µg/mL]	IC50 (µg/ml) in TZM-bl [14] [µg/mL]	IC50 (µg/ml) in TZM-bl [15] [µg/mL]	IC50 (µg/ml) in TZM-bl [16] [µg/mL]	IC50 (µg/ml) in TZM-bl [17] [µg/mL]	IC50 (µg/ml) in TZM-bl [18] [µg/mL]	IC50 (µg/ml) in TZM-bl [19] [µg/mL]	IC50 (µg/ml) in TZM-bl [20] [µg/mL]	also measured
3074 (antibody)	4.8	> 25	> 25	> 25	> 25	> 25	> 25	> 25	23	> 25	> 25	> 25	> 25	> 25	> 25	5.6	7.2	7.3	> 25	14.1	IC50 (µg/ml) in TZM-bl [21]: 10.2 µg/mL; ID50/IC50 in TZM-bl [22]: 23 µg/mL; ID50/IC50 in TZM-bl [23]: > 25 µg/mL; IC50 (µg/ml) in TZM-bl [24]: > 25 µg/mL; IC50 (µg/ml) in TZM-bl [25]: > 25 µg/mL; ID50/IC50 in TZM-bl [26]: > 25 µg/mL; IC50 (µg/ml) in TZM-bl [27]: > 25 µg/mL; IC50 (µg/ml) in TZM-bl [28]: 0.02 µg/mL; IC50 (µg/ml) in TZM-bl [29]: > 25 µg/mL; ID50/IC50 in TZM-bl [30]: > 25 µg/mL; IC50 (µg/ml) in TZM-bl [31]: 9.4 µg/mL
CH01 (antibody)	1	> 25	> 25	> 25	> 25	> 25	0.1	> 25	> 25	> 25	> 25	> 25	> 25	0.8	> 25	0.1	8.8	7.7	0.22	5.7	IC50 (µg/ml) in TZM-bl [21]: 0.09 µg/mL; ID50/IC50 in TZM-bl [22]: > 25 µg/mL; ID50/IC50 in TZM-bl [23]: > 25 µg/mL; IC50 (µg/ml) in TZM-bl [24]: > 25 µg/mL; IC50 (µg/ml) in TZM-bl [25]: 4.1 µg/mL; ID50/IC50 in TZM-bl [26]: > 25 µg/mL; IC50 (µg/ml) in TZM-bl [27]: > 25 µg/mL; IC50 (µg/ml) in TZM-bl [28]: > 20 µg/mL; IC50 (µg/ml) in TZM-bl [29]: 3.8 µg/mL; ID50/IC50 in TZM-bl [30]: > 25 µg/mL; IC50 (µg/ml) in TZM-bl [31]: 1 µg/mL
PGT121 (antibody)	> 5	> 5	> 5	> 5	> 5	> 5	> 5	> 5	4.2	> 5	2.5	> 5	3.4	> 5	3.4	> 5	> 5	> 5	> 5	> 5	IC50 (µg/ml) in TZM-bl [21]: > 5 µg/mL; ID50/IC50 in TZM-bl [22]: 4.2 µg/mL; ID50/IC50 in TZM-bl [23]: > 5 µg/mL; IC50 (µg/ml) in TZM-bl [24]: 3.4 µg/mL; IC50 (µg/ml) in TZM-bl [25]: > 5 µg/mL; ID50/IC50 in TZM-bl [26]: > 5 µg/mL; IC50 (µg/ml) in TZM-bl [27]: 2.5 µg/mL; IC50 (µg/ml) in TZM-bl [28]: > 20 µg/mL; IC50 (µg/ml) in TZM-bl [29]: > 5 µg/mL; ID50/IC50 in TZM-bl [30]: 3.4 µg/mL; IC50 (µg/ml) in TZM-bl [31]: > 5 µg/mL
